{"source": "patent US7297837", "about": "(Johns Hopkins, dated 2007)", "binders": {"B1": {"name": "hPMS-134 (containing codons 1-134 of hPMS2), in vitro translated (other, human, UniProt P54278 1-134, looked up)", "chain": "MERAESSSTEPAKAIKPIDRKSVHQICSGQVVLSLSTAVKELVENSLDAGATNIDLKLKDYGVDLIEVSDNGCGVEEENFEGLTLKHHTSKIQEFADLTQVETFGFRGEALSSLCALSDVTISTCHASAKVGTR", "modifications": "35S-labelled methionine", "notes": "The patient allele expressed in cells is said to give the N-terminal 133 amino acids"}}, "molecular_target": "T1, full-length hMLH1 protein (human, UniProt P40692 1-756, 35S-labelled methionine where labelled)", "T1 construct": "Called full-length", "T1 sequence (looked up)": "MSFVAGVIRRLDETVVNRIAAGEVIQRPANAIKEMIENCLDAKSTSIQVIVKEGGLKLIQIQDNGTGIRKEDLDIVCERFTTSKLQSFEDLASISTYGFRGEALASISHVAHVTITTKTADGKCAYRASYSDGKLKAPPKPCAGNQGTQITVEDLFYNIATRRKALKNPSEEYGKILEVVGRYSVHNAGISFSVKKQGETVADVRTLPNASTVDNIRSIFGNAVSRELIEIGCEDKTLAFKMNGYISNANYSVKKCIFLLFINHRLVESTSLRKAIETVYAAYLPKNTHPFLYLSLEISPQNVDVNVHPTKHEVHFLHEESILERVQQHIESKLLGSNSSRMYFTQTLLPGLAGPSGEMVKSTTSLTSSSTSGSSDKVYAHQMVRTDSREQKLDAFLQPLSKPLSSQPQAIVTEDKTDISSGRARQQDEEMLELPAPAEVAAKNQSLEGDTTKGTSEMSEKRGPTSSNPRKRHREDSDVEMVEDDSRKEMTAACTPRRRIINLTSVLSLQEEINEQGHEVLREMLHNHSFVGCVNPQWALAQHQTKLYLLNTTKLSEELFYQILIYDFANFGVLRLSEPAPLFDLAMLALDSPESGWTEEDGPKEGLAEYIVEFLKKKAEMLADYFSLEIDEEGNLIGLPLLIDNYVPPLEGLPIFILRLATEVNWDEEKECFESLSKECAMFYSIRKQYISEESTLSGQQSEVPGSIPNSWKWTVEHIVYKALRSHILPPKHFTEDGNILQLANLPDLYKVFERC", "experiment": "co-immunoprecipitation of in vitro translated proteins with anti-hMLH1 mAb (FIG. 5B, lane 1); converse with N-terminal hPMS2 antibody (FIG. 5C, lane 2)", "description": "Immunoprecipitation, Immunoprecipitations were performed on in vitro translated proteins by mixing the translation reactions with 1 μg of the MLH1 specific monoclonal antibody (mAB) MLH14 (Oncogene Science, Inc.), a polyclonal antibody generated to codons 2-20 of hPMS2 described above, or a polyclonal antibody generated to codons 843-862 of hPMS2 (Santa Cruz Biotechnology, Inc.) in 400 µl of EBC buffer (50 mM Tris, pH 7.5, 0.1 M NaCl, 0.5% NP40). After incubation for 1 hr at 4° C., protein A sepharose (Sigma) was added to a final concentration of 10% and reactions were incubated at 4° C. for 1 hour. Proteins bound to protein A were washed five times in EBC and separated by electrophoresis on 4-20% Tris-glycine gels, which were then dried and autoradiographed.\nPrevious studies have shown that these two proteins dimerize to form a functionally active complex (12, 28). Proteins were synthesized in vitro using reticulocyte lysates, employing RNA generated from cloned templates. The full-length hMLH1 and hPMS2 proteins bound to each other and were co-precipitated with antibodies to either protein, as expected (data not shown). […] When a ^35S-labelled, full length hMLH1 protein (FIG. 5A, lane 5) was mixed with the unlabelled carboxyl terminal hPMS2 polypeptide, a monoclonal antibody (mAb) to the carboxyl terminus of hPMS2 efficiently immunoprecipitated the labeled hMLH1 protein (lane 1). […]"}
{"binder": "B1", "values": [{"measurement": "binding result", "value": "no binding"}]}
